Data reported in paper PMC3942486 (2014).
Values belong to the binder of their own block, whether it stands above or below them.

Biological target: BCL6-POZ domain (residues 7 to 128 of human BCL6, C8Q, C67R, C84N) (human, UniProt P41182 7-128, cysteine8 mutated to glutamine | cysteine67 mutated to arginine | cysteine84 …)
Assay: FP

Kd: 41 µM
B1: styryl-SMRT peptide, labelled with BODIPY TMR (peptide)
chain: LVATVKEAGRSIXEIPR
modifications: styrylalanine in place of histidine1426; BODIPY TMR dye coupled via the amino-terminal cysteine

Kd: 43 µM
B2: homophenylalanine-SMRT peptide, labelled with BODIPY TMR (peptide)
chain: LVATVKEAGRSIXEIPR
modifications: homophenylalanine in place of histidine1426; BODIPY TMR dye coupled via the amino-terminal cysteine
